Data from PMC12400496 (Bioscience Reports, 2025).
Each block holds one molecule with its values, some of them ahead of it.

What was measured:
[1] = biological target: T1, CtcQ (Kitasatospora aureofaciens, UniProt S4S3E3); assay: X-ray crystal structure (co-crystal); assay type: binding; conditions: co-crystallised with 5 mM NAD and 5 mM FAD, pH 7.5
T1 construct: full length; crystal: N-terminal His10 tag cut by PreScission protease; reductase assay: C-terminal His6 tag kept; homodimer; primers encode N-terminus MPPEPLS and C-terminus TLAAEG

[2] = biological target: T2, CtcP (Kitasatospora aureofaciens, UniProt A0A1E7MYN1); assay: X-ray crystal structure (FAD soak); assay type: binding; conditions: chloride ion bound near isoalloxazine ring; soaked with 1 mM FAD, 20 mM NaCl, pH 7.5, 16 h
T2 construct: full length, 555 residues; N-terminal His10 tag cut by PreScission protease; expressed in E. coli BL21(DE3); homodimer; primers encode N-terminus MTDTTAD and C-terminus AMRVKP

[3] = biological target: T1, CtcQ; assay: NADH oxidation, absorbance at […] nm; assay type: biochemical; conditions: 0.1 mM FMN, 1 mM NADH, 1.7 uM CtcQ (C-terminal His6), 20 mM HEPES pH 7.5
[4] = biological target: CtcP (1-516), C-terminal truncation mutant lacking the helical hairpin (residues 1-516, P516G) (Kitasatospora aureofaciens); assay: SEC; S-200 column in 40 mM Tris pH 8.0, 100 mM NaCl, 2 mM BME; position of monomeric PltM as marker
[5] = biological target: halogenase CtcP from Kitasatospora aureofaciens, full-length (Kitasatospora aureofaciens); assay: as above
[6] = biological target: halogenase CtcP from Kitasatospora aureofaciens, full-length (Kitasatospora aureofaciens); assay: crystal structure; CtcP in complex with PEG and sulfate; hanging drops, 100 mM HEPES pH 7.0, 1.6 M ammonium sulfate, 2% PEG 400, 21 °C
[7] = biological target: halogenase CtcP from Kitasatospora aureofaciens, full-length (Kitasatospora aureofaciens); assay: crystal structure; CtcP in complex with FAD and Cl-; crystals from 0.1 M HEPES pH 7.5, 26% PEG 4000, 0.2 M Li2SO4, 21 °C, soaked with 1 mM FAD for 16 h
[8] = biological target: the molecule itself; assay: crystal structure; CtcQ in complex with FAD and NAD; hanging drops, 0.1 M Tris pH 7.5, 0.6 M KH2PO4, 0.6 M NaH2PO4, 21 °C, 5 mM NAD and 5 mM FAD

T2 sequence (A0A1E7MYN1 whole entry): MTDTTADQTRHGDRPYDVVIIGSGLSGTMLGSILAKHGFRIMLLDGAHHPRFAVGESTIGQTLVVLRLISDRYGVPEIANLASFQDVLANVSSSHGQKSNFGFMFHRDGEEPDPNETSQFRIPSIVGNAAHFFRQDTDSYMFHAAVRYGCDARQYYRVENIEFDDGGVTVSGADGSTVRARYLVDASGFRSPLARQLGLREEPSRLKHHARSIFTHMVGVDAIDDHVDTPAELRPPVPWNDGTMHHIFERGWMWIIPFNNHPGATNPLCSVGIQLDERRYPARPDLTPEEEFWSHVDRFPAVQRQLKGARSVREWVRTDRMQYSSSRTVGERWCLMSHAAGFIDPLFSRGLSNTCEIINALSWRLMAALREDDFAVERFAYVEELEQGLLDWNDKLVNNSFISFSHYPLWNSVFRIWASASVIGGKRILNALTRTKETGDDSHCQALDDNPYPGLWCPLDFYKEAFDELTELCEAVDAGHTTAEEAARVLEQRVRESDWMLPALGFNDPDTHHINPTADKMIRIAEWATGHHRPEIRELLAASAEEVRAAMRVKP

Molecule: Cc1cc2nc3c(=O)[nH]c(=O)nc-3n(C[C@H](O)[C@H](O)[C@H](O)COP(=O)(O)OP(=O)(O)OC[C@H]3O[C@@H](n4cnc5c(N)ncnc54)[C@H](O)[C@@H]3O)c2cc1C [FAD]
- X-ray crystal structure (co-crystal) ([1]; flavin subsite, second FAD also in the NAD subsite of most active sites): determined the crystal structure of CtcQ in complex with FAD and NAD
- X-ray crystal structure (FAD soak) [2]: We obtained crystals of the CtcP-FAD complex by soaking FAD into the CtcP crystals

Molecule: Cc1cc2nc3c(=O)[nH]c(=O)nc-3n(C[C@H](O)[C@H](O)[C@H](O)COP(=O)(O)O)c2cc1C [FMN]
- NADH oxidation, absorbance at 340 nm [3]: CtcQ, which was highly active with either FAD or FMN as a substrate

Molecule: NC(=O)c1ccc[n+]([C@@H]2O[C@H](COP(=O)(O)OP(=O)(O)OC[C@H]3O[C@@H](n4cnc5c(N)ncnc54)[C@H](O)[C@@H]3O)[C@@H](O)[C@H]2O)c1 [NAD]
- X-ray crystal structure (co-crystal) ([1]; U-shaped, stacked on FAD, text also calls the bound molecule NADH): determined the crystal structure of CtcQ in complex with FAD and NAD

- stoichiometry N [4]: 2
Molecule: CtcP (1-516), C-terminal truncation mutant lacking the helical hairpin (residues 1-516, P516G) (domain or fragment)

- stoichiometry N [5]: 2
- stoichiometry N [6]: 2
- stoichiometry N [7]: 2
Molecule: halogenase CtcP from Kitasatospora aureofaciens, full-length (enzyme)

B1: FAD reductase CtcQ from Kitasatospora aureofaciens (N-terminal tag removed) (enzyme, UniProt S4S3E3 1-191, looked up)
chain: MPPEPLSLPLDLAPGLVDGDTFLSIMGALPTGVTVVTTLGPDGEPYGLTCSAACSVSKAPPLLLVCINRDSRVLKALLERGEFAVNVLRGGGESTSARFAAPVDDRFRDVRWEPGSAGGVPVMSADVVAHAECRVAAALDAGDHTIVIGAVVAGGPRPEVPSPLMYWRRSYARWPVEEDPRTAALTLAAEG
notes: a second construct with a C-terminal His6 tag (pET22b) was used only for the reductase activity assay; also called flavin reductase CtcQ; source: E. coli BL21(DE3), purified (Ni2+-chelating chromatography, tag cleavage, S-200 size exclusion); not shown: His10, N-terminal, cleaved
- stoichiometry N [8]: 2
